Experimental data from patent publication US20070087356A1.

Tests used:
[1] = molecular target: GFP-Tus-His6 fusion protein (green fluorescent protein fused to E. coli Tus E47Q with a C-terminal six-histidine tag) (E. coli) (UniProt P16525); assay: protein microarray, fluorescence scan; fusion protein expressed in situ and captured on the spotted plasmid with mutant Ter site (SEQ ID NO: 12)
[2] = molecular target: GFP-Tus-His6 fusion protein (green fluorescent protein fused to E. coli Tus E47Q with a C-terminal six-histidine tag) (E. coli) (UniProt P16525); assay: protein microarray, fluorescence scan; fusion protein expressed in situ and captured on the spotted plasmid with wild-type Ter site

monoclonal antibody to the poly-his tag (Sigma-Aldrich), labeled with Cy3 or Cy5
Cy3 Signal Intensity (Background subtracted) (arbitrary units) [1]: 10900 | Cy5 Signal Intensity (Background subtracted) (arbitrary units) [1]: 4740 | Cy3 Signal Intensity (Background subtracted) (arbitrary units) [2]: 20600 | Cy5 Signal Intensity (Background subtracted) (arbitrary units) [2]: 14000
